Assay [1] concerns the target T1, Dbl (Homo sapiens, UniProt P10911).
T1 construct: Dbl (a.a. 498-826); expressed in transfected cells; host or cells: yeast
T1 sequence (P10911 498-826): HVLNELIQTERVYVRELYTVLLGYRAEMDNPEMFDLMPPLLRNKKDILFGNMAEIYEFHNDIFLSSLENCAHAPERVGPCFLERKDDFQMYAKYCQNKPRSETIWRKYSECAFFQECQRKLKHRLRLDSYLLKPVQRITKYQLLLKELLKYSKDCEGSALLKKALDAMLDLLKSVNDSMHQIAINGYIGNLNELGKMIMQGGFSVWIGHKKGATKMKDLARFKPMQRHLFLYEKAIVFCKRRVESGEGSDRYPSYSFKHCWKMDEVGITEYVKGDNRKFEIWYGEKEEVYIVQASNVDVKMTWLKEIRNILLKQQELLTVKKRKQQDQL
As to the kind of experiment: Binding specificity of aptamers in yeast. To be noted: RhoGEF Dbl. Set-up: key: +++^1 and +^1 represent respectively a full and a partial (see FIG. 1) binding capacity; +++^1 and +^1 represent respectively a full and a partial (see FIG. 1) binding capacity; −−^1 represents a lack of binding. An excerpt: (§1) Trx represents the thioredoxin protein with no inserted peptide.
(§2) In order to identify specific inhibitors of TrioGEFD2, a recently developed strategy was used, this strategy being derived from the yeast two hybrid system, where the cDNA library of preys has been replaced by a combinatorial library of short peptides (20 amino acids) in fusion with the bacterial protein thioredoxin A (Colas et al., 1996). This strategy has been successfully used to isolate specific inhibitors of the cyclin-dependent kinases (Cdks), the cell cycle transcription factor E2F, or the viral HPV16 E6 oncoprotein and HBEV core protein (Colas et al., 1996; Butz et al., 2001; Fabrizzio et al., 1999; Geyer et al., 2000). The TrioGEFD2 bait was constructed as follows: plasmid pMTHATrio1848-2298 (Bellanger et al., 1998) was digested with EcoRI/XhoI and the insert cloned in pEG202EcoRI/XhoI to generate the bait pEG202TroGEFD2. Yeast strain EGY048 (Colas et al., 1996) was transformed with pEG202TrioGEFD2 and subsequently with the library of Thioredoxin constrained aptamers according to standard procedures (Ito et al., 1983). After transformation, cells were allowed to recover for 4 hours in galactose containing medium before plating on selective galactose medium. Of the 2×10^6 screened colonies, those growing in the selective medium were recovered and retested for interaction. […] Binding specificity was investigated by screening for interaction with the following baits: TrioDH2 (a.a. 1848-2096), TrioPH2 (a.a. 2107-2223), TrioGEFD1 (a.a. 1232-1629), Dbl (a.a. 498-826), Vav (ala. 172-598) (Zhang et al, 1994), GEFD2 domain of Kalirin (a.a. 1640-1980)(Penzes et al., 2001), p115RhoGEF (a.a. 391-870)(Wells et al, 2002) and PDZRhoGEF (a.a. 964-1362) (Fukuhara et al., 1999). None of these aptamers interacted with other RhoGEF members such as Dbl, Vav, and the RhoA-specific GEFs p115RhoGEF and PDZRhoGEF.

The target of assay [2] is T2, p115RhoGEF (Homo sapiens, UniProt Q92888).
T2 construct: p115RhoGEF (a.a. 391-870); expressed in transfected cells; host or cells: yeast
T2 sequence (Q92888 391-870): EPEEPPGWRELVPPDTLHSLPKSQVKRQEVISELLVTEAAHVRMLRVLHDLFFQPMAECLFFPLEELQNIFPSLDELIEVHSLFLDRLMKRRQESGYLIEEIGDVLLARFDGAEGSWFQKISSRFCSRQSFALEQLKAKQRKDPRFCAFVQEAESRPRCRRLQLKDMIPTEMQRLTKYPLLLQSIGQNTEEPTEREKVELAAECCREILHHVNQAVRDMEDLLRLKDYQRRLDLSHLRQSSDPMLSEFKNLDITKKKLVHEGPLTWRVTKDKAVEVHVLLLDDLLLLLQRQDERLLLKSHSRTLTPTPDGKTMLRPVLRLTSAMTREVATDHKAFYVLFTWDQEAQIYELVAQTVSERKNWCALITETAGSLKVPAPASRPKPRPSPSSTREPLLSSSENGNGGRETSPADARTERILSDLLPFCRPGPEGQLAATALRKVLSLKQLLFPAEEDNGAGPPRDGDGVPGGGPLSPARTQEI
As to the kind of experiment: Binding specificity of aptamers in yeast. Set-up: key: +++^1 and +^1 represent respectively a full and a partial (see FIG. 1) binding capacity; +++^1 and +^1 represent respectively a full and a partial (see FIG. 1) binding capacity; −−^1 represents a lack of binding. Particulars: RhoGEF p115RhoGEF.
Text: as §1, §2

These results are taken from patent US8088892B2, “Inhibitors of proteins from the Rho-GEF family” (Centre National de la Recherche Scientifique (C.N.R.S.), priority 2002, dated 2012).

B1: TRIAPα: aptamer of 154 amino acids: variable region of 42 amino acids inserted into the thioredoxin protein; tested as GST fusion (protein)
chain: MSDKIIHLTDDSFDTDVLKADGAILVDFWAEWCGPAREGADGAICGYNLATLVMLGPSERVFCPLCEPCSSDIYELMGPCKMIAPILDEIADEYQGKLTVAKLNIDQNPGTAPKYGIRGIPTLLLFKNGEVASATKVGALSKGQLKEFLDANLA
B1: the Binding in yeast entry in assay [1] and in assay [2] was “−−^1” throughout.
